Measurements published in patent publication USRE50957E1, “Molecular rheostat for cofactor balance” (The Regents of the University of California, priority 2016, dated 2026).

What was measured:
[1] = substrate: NC(=O)c1ccc[n+]([C@@H]2O[C@H](COP(=O)([O-])OP(=O)(O)OC[C@H]3O[C@@H](n4cnc5c(N)ncnc54)[C@H](OP(=O)(O)O)[C@@H]3O)[C@@H](O)[C@H]2O)c1; experiment: purified protein, by the assay type; details: other: gapDH WT, cofactor, 50 mM tris pH 7.5, 340 nm
[2] = substrate: NC(=O)c1ccc[n+]([C@@H]2O[C@H](COP(=O)([O-])OP(=O)(O)OC[C@H]3O[C@@H](n4cnc5c(N)ncnc54)[C@H](OP(=O)(O)O)[C@@H]3O)[C@@H](O)[C@H]2O)c1; experiment: Kinetics and cofactor specificity of triple mutant mGap (mGapDH); assay type: biochemical, G. stearothermophilus ATCC12980; details: other: mGapDH, cofactor, 50 mM tris pH 7.5, 340 nm
Description: Enzyme activity and optimization. All of the enzymes used in this work were assayed. The enzymes were assayed in 50 mM tris buffer pH 7.5, 5 mM MgCl, and 5 mM KCl which mirrors the final reaction conditions. The activity of NAD(P)H producing or consuming reactions were monitored at 340 nm. The activity of ATP consuming enzymes were monitored using a coupled assay with Zwf and NADP^+ at 340 nm.
To implement the “molecular rheostat” module, GapDH enzyme was engineered that efficiently uses NADP^+. […] Although the cofactor specificity of GsGap has adjusted before by sequence-based design, the mutant only slightly preferred NADP^+ over NAD^+. To more strongly flip the cofactor specificity of GsGap the crystal structure was examined and basic residues introduced into the loop region proximate to the 2′OH of NAD′ that may help stabilize binding of a 2′ phosphate in NADP^+. A series of mutations were made altering residues D34, L35, and T36 of SEQ ID NO:6. The kinetics and specificity of the best enzyme, a D34A/L35R/T36K triple mutant (herein referred to as mGap), were obtained.

B1: G. stearothermophilus glyceraldehyde-3-phosphate dehydrogenase (GsGap, gapDH WT), wild type, SEQ ID NO:6 (Geobacillus stearothermophilus) (protein)
chain: MAVKVGINGFGRIGRNVFRAALKNPDIEVVAVNDLTDANTLAHLLKYDSVHGRLDAEVSVNGNNLVVNGKEIIVKAERDPENLAWGEIGVDIVVESTGRFTKREDAAKHLEAGAKKVIISAPAKNEDITIVMGVNQDKYDPKAHHVISNASCTTNCLAPFAKVLHEQFGIVRGMMTTVHSYTNDQRILDLPHKDLRRARAAAESIIPTTTGAAKAVALVLPELKGKLNGMAMRVPTPNVSVVDLVAELEKEVTVEEVNAALKAAAEGELKGILAYSEEPLVSRDYNGSTVSSTIDALSTMVIDGKMVKVVSWYDNETGYSHRVVDLAAYIASKGL
[1]
  Km: 1500 ± 500 µM

B2: G. stearothermophilus glyceraldehyde-3-phosphate dehydrogenase (GsGap) mutant mGapDH (mGap, gapDH M6), D34A/L35R/T36K relative to SEQ ID NO:6 (Geobacillus … (protein)
chain: MAVKVGINGFGRIGRNVFRAALKNPDIEVVAVNARKDANTLAHLLKYDSVHGRLDAEVSVNGNNLVVNGKEIIVKAERDPENLAWGEIGVDIVVESTGRFTKREDAAKHLEAGAKKVIISAPAKNEDITIVMGVNQDKYDPKAHHVISNASCTTNCLAPFAKVLHEQFGIVRGMMTTVHSYTNDQRILDLPHKDLRRARAAAESIIPTTTGAAKAVALVLPELKGKLNGMAMRVPTPNVSVVDLVAELEKEVTVEEVNAALKAAAEGELKGILAYSEEPLVSRDYNGSTVSSTIDALSTMVIDGKMVKVVSWYDNETGYSHRVVDLAAYIASKGL
[2]
  Km: 300 ± 40 µM
